Binding signal (% reduction vs WT), binding result and Kd data for five molecules are collected here from article PMC5992219, “HuR regulates telomerase activity through TERC methylation”.

Data set [1] concerns HuR (HeLa lysate) (human (HeLa)). Nature of the data set: pull-down. Conditions: biotin-UTP, ITC: 10 mM Tris pH 8.0, 100 mM NaCl, 25 C, UV-crosslinking EMSA: 50 mM Tris pH 7.0, 150 mM NaCl, 0.25 mg/ml tRNA, 0.025 mg/ml BSA, pull-down: 1 ug RNA ….
The target in data set [2] is HuR (ITC, SUMO tag removed) (UniProt Q15717 1-326). Put plainly: ITC; ITC: 10 mM Tris pH 8.0, 100 mM NaCl, 25 C; UV-crosslinking EMSA: 50 mM Tris pH 7.0, 150 mM NaCl, 0.25 mg/ml tRNA, 0.025 mg/ml BSA, 25 C; pull-down: 1 ug RNA, 100 ug cytoplasmic extract, room temperature, 30 min. Conditions: protein: recombinant; tags: N-terminal 6xHis-SUMO removed by Ulp1. On the technique in general: Isothermal titration calorimetry measures the heat released or taken up as one component is titrated into another.
Chain of HuR (ITC, SUMO tag removed) (Q15717 whole entry): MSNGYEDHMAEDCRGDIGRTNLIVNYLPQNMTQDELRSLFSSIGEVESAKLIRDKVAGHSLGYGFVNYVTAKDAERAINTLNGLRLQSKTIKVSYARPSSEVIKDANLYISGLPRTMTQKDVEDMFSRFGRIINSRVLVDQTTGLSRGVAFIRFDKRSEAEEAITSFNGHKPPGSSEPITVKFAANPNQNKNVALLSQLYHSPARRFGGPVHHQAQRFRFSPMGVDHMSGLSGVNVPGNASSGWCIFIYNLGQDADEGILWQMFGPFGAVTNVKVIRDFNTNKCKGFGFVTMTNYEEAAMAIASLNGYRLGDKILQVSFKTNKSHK

With TERC U100A, in data set [1], the binding signal (% reduction vs WT) is 70.4.

In turn, TERC U40A had a binding signal (% reduction vs WT) in data set [1] of 70.7.

Regarding CUAGACUAGGACUC (ssRNA) [ITC negative control RNA], the binding result in data set [2] was “no binding”.

For orientation: Kd means a measure of binding affinity in units of concentration. In the case of GUUUUUCUCG (ssRNA) [TERC 98-107 oligo (GUUUUUC motif)], in data set [2], the dissociation constant (Kd) is roughly 70.4 nM.

On to AUUUUUUGUCU (ssRNA) [TERC 37-47 oligo (UUUUUU motif)], for which, in data set [2], the equilibrium dissociation constant (Kd) was roughly 24.3 nM.
